From PMC8360118 (Genes to Cells, 2021)
* marks the point of attachment. αMan = OC[C@H]1O[C@H](*)[C@@H](O)[C@@H](O)[C@@H]1O

Molecular target: T1, soluble form of bovine POMGNT2 (sPOMGNT2, residues 45–580) (bovine, UniProt Q5NDF2 45-580)
T1 sequence (looked up): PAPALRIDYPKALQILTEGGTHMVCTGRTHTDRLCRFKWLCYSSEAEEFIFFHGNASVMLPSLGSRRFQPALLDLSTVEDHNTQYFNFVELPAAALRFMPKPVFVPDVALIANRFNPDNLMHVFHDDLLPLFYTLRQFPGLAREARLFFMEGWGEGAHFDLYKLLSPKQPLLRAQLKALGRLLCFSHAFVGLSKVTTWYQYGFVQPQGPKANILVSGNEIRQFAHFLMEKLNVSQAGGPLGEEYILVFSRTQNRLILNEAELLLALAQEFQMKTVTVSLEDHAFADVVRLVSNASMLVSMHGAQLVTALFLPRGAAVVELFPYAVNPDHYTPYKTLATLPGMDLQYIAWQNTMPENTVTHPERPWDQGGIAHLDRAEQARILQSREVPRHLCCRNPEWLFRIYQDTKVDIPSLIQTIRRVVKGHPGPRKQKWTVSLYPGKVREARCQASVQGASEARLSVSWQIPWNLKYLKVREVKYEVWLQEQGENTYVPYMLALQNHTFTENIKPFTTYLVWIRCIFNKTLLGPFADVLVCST
Experiment: crystal structure

B1: 379Man short peptide (peptide)
peptide: Ac-QT(αMan)PTLGPIQPTR-NH2
SMILES: CC[C@H](C)[C@H](NC(=O)[C@@H]1CCCN1C(=O)CNC(=O)[C@H](CC(C)C)NC(=O)[C@@H](NC(=O)[C@@H]1CCCN1C(=O)[C@@H](NC(=O)[C@H](CCC(N)=O)NC(C)=O)[C@@H](C)O[C@H]1O[C@H](CO)[C@@H](O)[C@H](O)[C@@H]1O)[C@@H](C)O)C(=O)N[C@@H](CCC(N)=O)C(=O)N1CCC[C@H]1C(=O)N[C@H](C(=O)N[C@@H](CCCNC(=N)N)C(N)=O)[C@@H](C)O
binding result: binds

B2: 379Man long peptide (peptide)
peptide: Ac-TIRTRGAIIQT(αMan)PTLGPIQPTR-NH2
SMILES: CC[C@H](C)[C@H](NC(=O)[C@H](C)NC(=O)CNC(=O)[C@H](CCCNC(=N)N)NC(=O)[C@@H](NC(=O)[C@H](CCCNC(=N)N)NC(=O)[C@@H](NC(=O)[C@@H](NC(C)=O)[C@@H](C)O)[C@@H](C)CC)[C@@H](C)O)C(=O)N[C@H](C(=O)N[C@@H](CCC(N)=O)C(=O)N[C@H](C(=O)N1CCC[C@H]1C(=O)N[C@H](C(=O)N[C@@H](CC(C)C)C(=O)NCC(=O)N1CCC[C@H]1C(=O)N[C@H](C(=O)N[C@@H](CCC(N)=O)C(=O)N1CCC[C@H]1C(=O)N[C@H](C(=O)N[C@@H](CCCNC(=N)N)C(N)=O)[C@@H](C)O)[C@@H](C)CC)[C@@H](C)O)[C@@H](C)O[C@H]1O[C@H](CO)[C@@H](O)[C@H](O)[C@@H]1O)[C@@H](C)CC
binding result: binds
